Measurements published in patent publication US20040253247A1.

T1: rabbit albumin (rabbit), P49065
T1 chain: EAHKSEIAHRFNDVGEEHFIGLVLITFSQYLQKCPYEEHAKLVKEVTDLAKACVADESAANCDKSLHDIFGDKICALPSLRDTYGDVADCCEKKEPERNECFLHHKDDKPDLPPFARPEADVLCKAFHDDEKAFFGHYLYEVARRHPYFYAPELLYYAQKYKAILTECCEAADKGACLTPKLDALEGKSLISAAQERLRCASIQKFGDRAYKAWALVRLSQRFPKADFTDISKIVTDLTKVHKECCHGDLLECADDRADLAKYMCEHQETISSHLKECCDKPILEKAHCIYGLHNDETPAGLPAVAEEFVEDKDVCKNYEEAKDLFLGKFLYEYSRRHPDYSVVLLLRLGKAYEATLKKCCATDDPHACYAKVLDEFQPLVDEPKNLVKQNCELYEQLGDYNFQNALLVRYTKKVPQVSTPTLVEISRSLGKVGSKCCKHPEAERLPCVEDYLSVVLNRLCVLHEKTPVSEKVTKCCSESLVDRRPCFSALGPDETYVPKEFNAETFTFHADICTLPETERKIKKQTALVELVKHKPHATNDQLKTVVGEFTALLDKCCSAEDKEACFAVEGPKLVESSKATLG

T2: rat albumin (rat), P02770
T2 chain: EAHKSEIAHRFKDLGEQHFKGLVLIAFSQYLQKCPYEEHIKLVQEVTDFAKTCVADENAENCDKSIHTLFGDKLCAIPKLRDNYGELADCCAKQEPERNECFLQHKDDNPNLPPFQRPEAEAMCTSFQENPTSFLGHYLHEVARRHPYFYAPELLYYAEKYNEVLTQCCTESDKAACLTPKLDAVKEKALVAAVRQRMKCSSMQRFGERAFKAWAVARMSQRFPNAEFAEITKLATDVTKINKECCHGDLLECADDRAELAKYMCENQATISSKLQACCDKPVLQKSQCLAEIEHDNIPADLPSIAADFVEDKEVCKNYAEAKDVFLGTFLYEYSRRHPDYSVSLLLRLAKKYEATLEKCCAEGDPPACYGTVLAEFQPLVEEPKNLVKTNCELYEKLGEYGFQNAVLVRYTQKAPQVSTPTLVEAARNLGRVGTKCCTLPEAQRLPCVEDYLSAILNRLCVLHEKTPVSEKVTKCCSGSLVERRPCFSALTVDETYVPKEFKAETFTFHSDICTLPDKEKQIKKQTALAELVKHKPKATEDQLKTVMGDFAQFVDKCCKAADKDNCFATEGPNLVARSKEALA


What was measured:
Assay in all cases: SA08b binding assay: competition with biotinylated SA08b for immobilized albumin
[1] = biological target: T1, rabbit albumin (rabbit), P49065
[2] = biological target: mouse albumin (mouse), P07724
Chain of mouse albumin (mouse), P07724 (P07724 25-608 limits assumed): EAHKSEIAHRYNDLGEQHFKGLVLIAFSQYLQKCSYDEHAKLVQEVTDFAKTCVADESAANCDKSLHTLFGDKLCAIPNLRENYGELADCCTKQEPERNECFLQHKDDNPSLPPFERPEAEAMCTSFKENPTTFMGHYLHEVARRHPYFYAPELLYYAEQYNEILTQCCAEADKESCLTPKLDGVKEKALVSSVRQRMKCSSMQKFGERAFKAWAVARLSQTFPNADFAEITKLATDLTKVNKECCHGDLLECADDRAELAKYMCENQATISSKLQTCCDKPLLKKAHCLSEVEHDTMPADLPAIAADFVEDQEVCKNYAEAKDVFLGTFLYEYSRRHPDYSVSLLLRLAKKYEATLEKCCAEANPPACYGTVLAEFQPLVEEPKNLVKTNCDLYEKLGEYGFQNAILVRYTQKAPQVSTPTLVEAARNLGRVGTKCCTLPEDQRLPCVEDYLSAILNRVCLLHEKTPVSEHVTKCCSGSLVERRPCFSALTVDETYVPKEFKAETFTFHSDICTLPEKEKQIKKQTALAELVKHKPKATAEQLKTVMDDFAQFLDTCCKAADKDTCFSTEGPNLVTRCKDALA

[3] = biological target: T2, rat albumin (rat), P02770

Binder	IC50 [1] [µM]	IC50 [2] [µM]	IC50 [3] [µM]
RLMEDICLARWGCLWEDD (modifications not checked) [SA13]	3.2	0.188	2.48
RLMEDICLPRWGCLWEDD (modifications not checked) [SA10]	0.086	0.004	0.077
